The labels stand for the following.
B1: human TRAIL (TNF Related Apoptosis Inducing Ligand), as used in the receptor binding analysis (ligand)
chain: MAMMEVQGGPSLGQTCVLIVIFTVLLQSLCVAVTYVYFTNELKQMQDKYSKSGIACFLKEDDSYWDPNDEESMNSPCWQVKWQLRQLVRKMILRTSEETISTVQEKQQNISPLVRERGPQRVAAHITGTRGRSNTLSSPNSKNEKALGRKINSWESSRSGHSFLSNLHLRNGELVIHEKGFYYIYSQTYFRFQEEIKENTKNDKQMVQYIYKYTSYPDPILLMKSARNSCWSKDAEYGLYSIYQGGIFELKENDRIFVSVTNEHLIDMDHEASFFGAFLVG
notes: also called huTRAIL

One test concerns the target T1, human CD30 (human, UniProt P28908 19-385, limits assumed).
T1 sequence (looked up): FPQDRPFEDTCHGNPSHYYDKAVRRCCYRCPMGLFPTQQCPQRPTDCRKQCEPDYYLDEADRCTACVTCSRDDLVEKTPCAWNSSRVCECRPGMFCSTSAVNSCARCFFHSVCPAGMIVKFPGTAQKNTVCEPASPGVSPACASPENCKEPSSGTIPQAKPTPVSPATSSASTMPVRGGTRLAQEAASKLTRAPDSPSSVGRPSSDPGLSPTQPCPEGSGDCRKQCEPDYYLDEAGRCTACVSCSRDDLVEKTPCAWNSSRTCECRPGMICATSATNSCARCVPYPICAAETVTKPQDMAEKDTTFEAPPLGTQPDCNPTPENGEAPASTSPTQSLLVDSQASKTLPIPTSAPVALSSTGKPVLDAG
Put plainly: slide autoradiography (procedure of Gearing et al.). On the procedure:
(§1) TRAIL was tested for ability to bind receptors of the TNF-R family of receptors. The binding analysis was conducted using the slide autoradiography procedure of Gearing et al. (EMBO J. 8:3667, 1989).

Test [1] has as its target B1. Described as above. On the procedure:
as §1

For the molecule B1, in the test with human CD30, the binding result is “no binding”.

B2: human TNF-R (p80 form) (receptor, UniProt P20333 23-257, looked up)
chain: LPAQVAFTPYAPEPGSTCRLREYYDQTAQMCCSKCSPGQHAKVFCTKTSDTVCDSCEDSTYTQLWNWVPECLSCGSRCSSDQVETQACTREQNRICTCRPGWYCALSKQEGCRLCAPLRKCRPGFGVARPGTETSDVVCKPCAPGTFSNTTSSTDICRPHQICNVVAIPGNASMDAVCTSTSPTRSMAPGAVHLPQPVSTRSQHTQPTPEPSTAPSTSFLLPMGPSPPAEGSTGD
For B2, in test [1], the binding result is “no binding”.

B3: human CD27 (receptor, UniProt P26842 20-191, looked up)
chain: ATPAPKSCPERHYWAQGKLCCQMCEPGTFLVKDCDQHRKAAQCDPCIPGVSFSPDHHTRPHCESCRHCNSGLLVRNCTITANAECACRNGWQCRDKECTECDPLPNPSLTARSSQALSPHPQPTHLPYVSEMLEARTAGHMQTLADFRQLPARTLSTHWPPQRSLCSSDFIR
Consider B3, for which the binding result in test [1] was “no binding”.

B4: human OX40 (receptor, UniProt P43489 29-214, looked up)
chain: LHCVGDTYPSNDRCCHECRPGNGMVSRCSRSQNTVCRPCGPGFYNDVVSSKPCKPCTWCNLRSGSERKQLCTATQDTVCRCRAGTQPLDSYKPGVDCAPCPPGHFSPGDNQACKPWTNCTLAGKHTLQPASNSSDAICEDRDPPATQPQETQGPPARPITVQPTEAWPRTSQGPSTRPVEVPGGRA
Turning to B4, the binding result in test [1] was “no binding”.

B5: human LTβR (receptor, UniProt P36941 31-227, looked up)
chain: QAVPPYASENQTCRDQEKEYYEPQHRICCSRCPPGTYVSAKCSRIRDTVCATCAENSYNEHWNYLTICQLCRPCDPVMGLEEIAPCTSKRKTQCRCQPGMFCAAWALECTHCELLSDCPPGTEAELKDEVGKGNNHCVPCKAGHFQNTSSPSARCQPHTRCENQGLVEAAPGTAQSDTTCKNPLEPLPPEMSGTMLM
notes: also called TNFR-RP
For B5, in test [1], the binding result is recorded as “no binding”.

Source of the values: US20040052788A1 (IMMUNEX, published 2004).
